The assay addresses T1, His6-RpoA (alpha subunit of the RNA polymerase) (UniProt P0A7Z4 1-329).
T1 construct: RNA polymerase alpha subunit RpoA; also called His-tagged RpoA; α-subunit of the RNAP; source: E. coli BL21 (DE3) containing pET28-RpoA, purified as described previously
Description: pull-down; 50 µg each of purified MBP or MBP-PerA and His6-RpoA in interaction buffer (2X: 100 mM NaH2PO4, 600 mM NaCl, 40 mM imidazol, 0.5% NP-40, 20% glycerol, pH 8.0), 30 min on ice, then 50 µl amylose resin 2 h at ~4 °C; Western blot with anti-MBP antibody or anti-His6-HRP probe. Particulars: both partners purified. Background: Immunoblotting shows a protein as a band on a membrane.

The source of these data is publication PMC8058060, “The transcriptional activator of the bfp operon in EPEC (PerA) interacts with the RNA polymerase alpha subunit” (Scientific Reports, 2021).

T1 sequence (P0A7Z4 whole entry): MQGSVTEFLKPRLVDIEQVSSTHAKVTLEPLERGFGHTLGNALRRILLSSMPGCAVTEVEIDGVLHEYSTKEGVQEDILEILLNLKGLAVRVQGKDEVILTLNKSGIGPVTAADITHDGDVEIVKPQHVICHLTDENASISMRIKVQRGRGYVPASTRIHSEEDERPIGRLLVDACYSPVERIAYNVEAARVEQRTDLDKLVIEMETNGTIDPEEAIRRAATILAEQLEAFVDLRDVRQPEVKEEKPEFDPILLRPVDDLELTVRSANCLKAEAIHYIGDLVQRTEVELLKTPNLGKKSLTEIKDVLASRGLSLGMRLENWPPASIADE

B1: MBP-PerA fusion (natural protein)
chain: MLTSKKEMQSSENKQEENLALLLTNYISYQNIVIFTGGNQFKIRNKKEFTEYTIESNSLFFLAKNTHWDMEIVGIDNSNPYRKIIIDDALIKLLHSISSDDSCYVKKKIFTANLNEMQLNIVSNIITDIKYSGNNKKIFKILYLLSFFNDYNDIVNVILSASSKSIVDRVIKVIELDISKNWKLGDVSSSMFMSDSCLRKQLNKENLTFKKIMLDIKMKHASLFLRTTDKNIDEISCLVGFNSTSYFIKVFKEYYNTTPKKYNGVYSITQGTLP
notes: 274 residues; pMalC2xa derivative; also called BfpT; MBP-PerA chimera; source: expressed from pMALT2; over-expressed in EPEC E2348/69 ΔperA with 0.3 mM IPTG, in soluble lysate, for the co-purification
B1: the binding result was “binds”.
